Here are results for one protein from publication PMC12400196, “Triosephosphate isomerase from Fasciola hepatica: high-resolution crystal structure as a drug target” (Acta Crystallographica Section F: Structural Biology …, 2025).

This data set concerns the molecule itself. Description: SEC; HiLoad 16/600 Superdex 200 pg, 25 mM Tris, 300 mM NaCl pH 7.0, 277 K; preparative step after IMAC. In general terms: In gel filtration, larger molecules generally elute earlier.

B1: Triosephosphate isomerase from Fasciola hepatica (enzyme)
chain: MASNRKFFVGGNWKMNGSKESNQKLLKTLSDAKPDANTEILVAVPFVYLKDVREHLDKRFHVAAQNCYKVASGAFTGEISPAMIRDCGCEWVILGHSERRHIFGESDELIGEKVNHALTCGLKVVPCIGEKLDEREAGKTEQVCFRQLDAIKKGIPKAEDWSRVVIAYEPVWAIGTGKTASPEQAQEVHHAVRQWLEKNVSQAVASSLRITYGGSVTAANCKELAKKPDVDGFLVGGASLKPEFVDICNANRG
notes: triosephosphate isomerase (EC 5.3.1.1), Fasciola hepatica; gene in plasmid pET-46 Ek/LIC; The plasmid was provided by D. Timson (construct of Zinsser et al., 2013); also called FhTPI; F. hepatica TPI; source: E. coli Rosetta (DE3), purified (IMAC, SEC)
Usually stoichiometry N stands for the number of molecules, sites or subunits per partner or assembly. On to B1, for which the “stoichiometry N” value was determined as 2.
